# Laboratory results reported in article PMC5170556 (Molecular Biology of the Cell, 2016).
# T1: Kar9 (full-length) (S. cerevisiae, UniProt P32526 1-644)
# T1 sequence (looked up): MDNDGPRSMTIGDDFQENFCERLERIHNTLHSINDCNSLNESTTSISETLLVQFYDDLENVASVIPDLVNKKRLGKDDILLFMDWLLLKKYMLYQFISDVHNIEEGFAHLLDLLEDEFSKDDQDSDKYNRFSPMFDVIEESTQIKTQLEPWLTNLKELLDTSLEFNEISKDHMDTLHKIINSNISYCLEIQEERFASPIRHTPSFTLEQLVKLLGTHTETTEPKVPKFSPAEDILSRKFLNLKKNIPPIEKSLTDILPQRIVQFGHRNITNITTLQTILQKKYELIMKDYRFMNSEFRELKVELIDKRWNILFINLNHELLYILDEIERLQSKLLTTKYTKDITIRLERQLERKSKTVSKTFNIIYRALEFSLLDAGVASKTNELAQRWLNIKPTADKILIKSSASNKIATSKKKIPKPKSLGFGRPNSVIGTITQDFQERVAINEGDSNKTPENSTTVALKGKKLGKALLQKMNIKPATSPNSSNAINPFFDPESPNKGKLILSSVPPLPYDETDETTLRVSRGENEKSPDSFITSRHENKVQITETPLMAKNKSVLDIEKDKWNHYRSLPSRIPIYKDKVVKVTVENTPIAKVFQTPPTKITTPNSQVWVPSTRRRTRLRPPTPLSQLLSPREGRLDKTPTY
# T2: Kar9N-Site1 (first 570 N-terminal residues of Kar9) (S. cerevisiae, UniProt P32526 1-570)
# T2 sequence (looked up): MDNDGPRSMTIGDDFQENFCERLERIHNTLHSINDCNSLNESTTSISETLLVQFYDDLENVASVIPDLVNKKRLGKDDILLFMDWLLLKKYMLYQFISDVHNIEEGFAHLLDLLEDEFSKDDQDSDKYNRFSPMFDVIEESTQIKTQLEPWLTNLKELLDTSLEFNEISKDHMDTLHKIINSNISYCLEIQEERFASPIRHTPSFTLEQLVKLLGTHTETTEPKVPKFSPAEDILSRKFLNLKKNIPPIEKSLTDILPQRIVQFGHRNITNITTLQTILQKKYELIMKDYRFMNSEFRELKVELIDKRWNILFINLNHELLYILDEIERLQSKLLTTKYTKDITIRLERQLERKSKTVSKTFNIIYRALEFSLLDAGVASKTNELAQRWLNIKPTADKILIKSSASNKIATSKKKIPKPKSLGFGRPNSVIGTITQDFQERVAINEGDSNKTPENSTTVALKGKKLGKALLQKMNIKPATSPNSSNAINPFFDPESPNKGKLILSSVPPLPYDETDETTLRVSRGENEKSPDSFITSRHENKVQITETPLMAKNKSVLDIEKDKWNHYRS
# T3: Kar9-GFP (S. cerevisiae, UniProt P32526 1-644)
# T3 sequence (looked up): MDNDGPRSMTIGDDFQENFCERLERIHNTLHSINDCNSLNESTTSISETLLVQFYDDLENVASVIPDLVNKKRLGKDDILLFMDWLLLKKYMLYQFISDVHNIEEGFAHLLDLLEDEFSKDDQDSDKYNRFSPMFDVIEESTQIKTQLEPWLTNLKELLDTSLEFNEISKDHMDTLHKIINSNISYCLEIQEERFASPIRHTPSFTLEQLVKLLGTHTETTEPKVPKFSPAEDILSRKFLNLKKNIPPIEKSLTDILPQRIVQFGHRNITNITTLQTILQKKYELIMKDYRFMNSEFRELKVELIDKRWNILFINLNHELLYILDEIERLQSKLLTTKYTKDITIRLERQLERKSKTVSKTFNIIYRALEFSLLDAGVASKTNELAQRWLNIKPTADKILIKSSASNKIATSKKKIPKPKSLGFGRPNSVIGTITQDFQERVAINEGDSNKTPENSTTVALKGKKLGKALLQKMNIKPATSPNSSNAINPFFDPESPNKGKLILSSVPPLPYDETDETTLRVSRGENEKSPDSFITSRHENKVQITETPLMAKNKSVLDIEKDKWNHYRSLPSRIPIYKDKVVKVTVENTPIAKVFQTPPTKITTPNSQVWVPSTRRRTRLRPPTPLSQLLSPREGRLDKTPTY
# B1: C-terminal domain of Bim1 (residues 194–344) (domain or fragment, S. cerevisiae, UniProt P40013 194-344, looked up)
# chain: ETIGSLNEEIEQYKGTVSTLEIEREFYFNKLRDIEILVHTTQDLINEGVYKFNDETITGHGNGNGGALLRFVKKVESILYATAEGFEMNDGEDELNDKNLGEHGTVPNQGGYANSNGEVNGNEGSNHDVIMQNDEGEVGVSNNLIIDEETF
# B2: Kar9C (residues 429–644) (domain or fragment, S. cerevisiae, UniProt P32526 429-644, looked up)
# chain: SVIGTITQDFQERVAINEGDSNKTPENSTTVALKGKKLGKALLQKMNIKPATSPNSSNAINPFFDPESPNKGKLILSSVPPLPYDETDETTLRVSRGENEKSPDSFITSRHENKVQITETPLMAKNKSVLDIEKDKWNHYRSLPSRIPIYKDKVVKVTVENTPIAKVFQTPPTKITTPNSQVWVPSTRRRTRLRPPTPLSQLLSPREGRLDKTPTY
# B3: Kar9C-Site2mut (domain or fragment, S. cerevisiae, UniProt P32526 429-644, looked up)
# chain: SVIGTITQDFQERVAINEGDSNKTPENSTTVALKGKKLGKALLQKMNIKPATSPNSSNAINPFFDPESPNKGKLILSSVPPLPYDETDETTLRVSRGENEKSPDSFITSRHENKVQITETPLMAKNKSVLDIEKDKWNHYRSLPSRNNIYKDKVVKVTVENTPIAKVFQTPPTKITTPNSQVWVPSTRRRTRLRPPTPLSQLLSPREGRLDKTPTY
# Legend:
# [1] = target: Kar9N (residues 1–429) (S. cerevisiae) (UniProt P32526); assay: SEC-MALS
# [2] = target: Kar9 (full-length) (S. cerevisiae) (UniProt P32526); assay: SEC-MALS
# [3] = target: the molecule itself; assay: SEC-MALS
# [4] = target: T1, Kar9 (full-length); assay: fluorescence correlation spectroscopy
# [5] = target: B1; assay: ITC
# [6] = target: B3; assay: ITC
# [7] = target: B2; assay: ITC
# [8] = target: T2, Kar9N-Site1 (first 570 N-terminal …); assay: fluorescence correlation spectroscopy
# [9] = target: the molecule itself; assay: AUC
# [10] = target: T3, Kar9-GFP; assay: in vitro microtubule-tip tracking reconstitution
molecule,measurement,setting,value
Kar9N (residues 1–429) (from UniProt P32526 1-429) (domain or fragment),stoichiometry N,[1],2
Kar9 (full-length) (from UniProt P32526 1-644) (natural protein),stoichiometry N,[2],2
"Bim1 (full-length) (natural protein, S. cerevisiae, UniProt P40013 1-344, looked up) MSAGIGESRTELLTWLNGLLNLNYKKIEECGTGAAYCQIMDSIYGDLPMNRVKFNATAEYEFQTNYKILQSCFSRHGIEKTVYVDKLIRCKFQDNLEFLQWLKKHWIRHKDESVYDPDARRKYRPIITNNSATKPRTVSNPTTAKRSSSTGTGSAMSGGLATRHSSLGINGSRKTSVTQGQLVAIQAELTKSQETIGSLNEEIEQYKGTVSTLEIEREFYFNKLRDIEILVHTTQDLINEGVYKFNDETITGHGNGNGGALLRFVKKVESILYATAEGFEMNDGEDELNDKNLGEHGTVPNQGGYANSNGEVNGNEGSNHDVIMQNDEGEVGVSNNLIIDEETF",stoichiometry N,[3],2
"GFP-tagged C-terminal domain of Bim1 (domain or fragment, S. cerevisiae, UniProt P40013 194-344, looked up) ETIGSLNEEIEQYKGTVSTLEIEREFYFNKLRDIEILVHTTQDLINEGVYKFNDETITGHGNGNGGALLRFVKKVESILYATAEGFEMNDGEDELNDKNLGEHGTVPNQGGYANSNGEVNGNEGSNHDVIMQNDEGEVGVSNNLIIDEETF",Kd,[4],4.5 nM
VFQTPPTKITTPNSQVWVPSTRRRTRLRPPTPLSQLLSPREGRLDKTPTY (domain or fragment) [Trx-Kar9-Site3],Kd,[5],560 nM
same,stoichiometry N,[5],0.99
B1,stoichiometry N,[3],2
same,Kd,[6],4700 nM
same,Kd,[7],9.1 nM
"C-terminally green fluorescent protein–tagged Bim1 (natural protein, S. cerevisiae, UniProt P40013 1-344, looked up) MSAGIGESRTELLTWLNGLLNLNYKKIEECGTGAAYCQIMDSIYGDLPMNRVKFNATAEYEFQTNYKILQSCFSRHGIEKTVYVDKLIRCKFQDNLEFLQWLKKHWIRHKDESVYDPDARRKYRPIITNNSATKPRTVSNPTTAKRSSSTGTGSAMSGGLATRHSSLGINGSRKTSVTQGQLVAIQAELTKSQETIGSLNEEIEQYKGTVSTLEIEREFYFNKLRDIEILVHTTQDLINEGVYKFNDETITGHGNGNGGALLRFVKKVESILYATAEGFEMNDGEDELNDKNLGEHGTVPNQGGYANSNGEVNGNEGSNHDVIMQNDEGEVGVSNNLIIDEETF",Kd,[8],~100000 nM
same,stoichiometry N,[9],2
B2,stoichiometry N,[5],0.48
B3,stoichiometry N,[5],0.74
"Mal3 (unlabeled), Schizosaccharomyces pombe EB1 family member (natural protein, UniProt Q10113 1-308, looked up) MSESRQELLAWINQVTSLGLTRIEDCGKGYAMIQIFDSIYQDIPLKKVNFECNNEYQYINNWKVLQQVFLKKGIDKVVDPERLSRCKMQDNLEFVQWAKRFWDQYYPGGDYDALARRGNRGPANTRVMNSSAGATGPSRRRQVSSGSSTPSMTKSSANNNNVSSTANTAAVLRAKQAQQQITSLETQLYEVNETMFGLERERDFYFNKLREIEILVQTHLTTSPMSMENMLERIQAILYSTEDGFELPPDQPADLTTALTDHDTNNVAEEAQMTDLKDSETQRVPSAPDFVHARLQSLEVDDDENITF",binding result,[10],binds
